Measured values reported in patent US20230094162A1.
Like-named read-outs stand apart in the source and are kept apart here.

Legend:
[1] = target: CD137 expressed on the cell surface (CHO/CD137 cells) (UniProt Q07011); experiment: cell-based or functional assay
[2] = target: CD137 expressed on the cell surface (CHO/CD137 cells) (UniProt Q07011); experiment: flow cytometry on CHO/CD137 cells (Surface Binding)
[3] = target: CD137 expressed on the cell surface (CHO/CD137 cells) (UniProt Q07011); experiment: flow cytometry (FACS) on CHO cells expressing CD137, MFI
[4] = target: PD-L1 expressed on the cell surface (CHO/PD-L1 cells) (UniProt Q9NZQ7)
[5] = target: PD-L1 expressed on the cell surface (CHO/PD-L1 cells) (UniProt Q9NZQ7); experiment: flow cytometry (FACS) on CHO cells expressing PD-L1, MFI

Sequence of CD137 expressed on the cell surface (CHO/CD137 cells) (Q07011 24-255 limits assumed): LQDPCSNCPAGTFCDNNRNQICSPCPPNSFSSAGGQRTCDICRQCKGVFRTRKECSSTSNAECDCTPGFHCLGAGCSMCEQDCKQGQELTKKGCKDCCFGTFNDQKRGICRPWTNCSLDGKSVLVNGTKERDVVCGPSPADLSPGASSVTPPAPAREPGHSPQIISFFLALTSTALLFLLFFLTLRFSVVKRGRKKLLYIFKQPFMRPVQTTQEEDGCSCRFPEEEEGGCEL
Sequence of PD-L1 expressed on the cell surface (CHO/PD-L1 cells) (Q9NZQ7 19-290): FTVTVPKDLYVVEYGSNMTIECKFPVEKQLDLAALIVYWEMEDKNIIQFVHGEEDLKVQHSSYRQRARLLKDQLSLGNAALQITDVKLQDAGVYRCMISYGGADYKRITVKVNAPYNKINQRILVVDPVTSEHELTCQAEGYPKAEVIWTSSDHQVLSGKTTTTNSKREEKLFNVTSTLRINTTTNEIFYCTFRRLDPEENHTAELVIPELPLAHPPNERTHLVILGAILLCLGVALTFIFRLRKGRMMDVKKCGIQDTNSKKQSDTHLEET

non-specific mAb (antibody)
Reporter Assay (RLU), 0.08 µg/mL [1]: 1250 RLU | Reporter Assay (RLU), IgG conc 0.02 µg/mL [1]: 1020 RLU | Reporter Assay (RLU), IgG conc 0.1 µg/mL [1]: 1240 RLU | MFI max [2]: 149 MFI

replica of the agonistic anti-CD137 mAb urelumab (r-urelumab) (antibody)
EC50 (read off the curve) [3]: 0.06 µg/mL

replica of the anti-PD-L1 antibody atezolizumab (r-atezolizumab)
EC50 (read off the curve) [4]: 0.3 µg/mL | EC50 (read off the curve) [5]: 0.01 µg/mL
